According to publication PMC6684607:

What was measured:
[1] = molecular target: Recombinantly expressed TNF domain of Spodoptera frugiperda Eiger (SfEiger) (Spodoptera frugiperda); experiment: SEC; Superdex 200 Increase 10/300 GL; elution volume compared with a protein standard
[2] = molecular target: TNF domain of Spodoptera frugiperda Eiger (SfEiger), endogenous soluble form released from Sf9 cells (Spodoptera frugiperda (endogenous in Sf9)); experiment: crystal structure; X-ray, 1.7 A, space group R 3:H, one protomer in the asymmetric unit, trimer generated by the crystallographic threefold axis; crystal grown at 298 K in MORPHEUS condition 1-26

| stoichiometry N [1] | stoichiometry N [2] | Substance |
| --- | --- | --- |
| 3 |  | Recombinantly expressed TNF domain of Spodoptera frugiperda Eiger (SfEiger) (domain or fragment) |
|  | 3 | TNF domain of Spodoptera frugiperda Eiger (SfEiger), endogenous soluble form released from Sf9 cells (domain or fragment) |
